Where two headings read alike, the source gives them in different places.
Columns and labels:
[1] = target: ATP hydrolysis-deficient DctD, DctD_(H216R), prepared as a dephosphorylated form (d-DctD_(H216R)) (Vibrio vulnificus); experiment: SEC; d-DctD_(H216R) (alkaline phosphatase-treated) and d-IIA^Glc in 50 mM Tris-HCl pH 8.0, 20 mM KCl, 50 mM MgCl2, 100 mM NaCl applied to Superdex 200 Increase 10/300 GL; fractionated multimers used for the ATPase assay
[2] = target: ATP hydrolysis-deficient DctD, DctD_(H216R), prepared as a dephosphorylated form (d-DctD_(H216R)) (Vibrio vulnificus); experiment: as above; remark: listed apart in the source
[3] = target: phosphorylation-deficient DctD (DctD_(D57Q)) of Vibrio vulnificus (Vibrio vulnificus); experiment: SEC; GPC of mixtures of d-IIA^Glc and DctD_(D57Q) (20 µM each; also 5 µM + 20 µM and 20 µM + 5 µM); Superdex 200 Increase 10/300 GL, running buffer 50 mM Tris-HCl pH 8.0, 20 mM KCl, 50 mM MgCl2, 300 mM NaCl; fractions analysed by SDS-PAGE with densitometry against known amounts of each protein
[4] = target: phosphorylation-deficient DctD (DctD_(D57Q)) of Vibrio vulnificus (Vibrio vulnificus); experiment: SEC; GPC of recombinant DctD_(D57Q) alone; Superdex 200 Increase 10/300 GL, running buffer 50 mM Tris-HCl pH 8.0, 20 mM KCl, 50 mM MgCl2, 300 mM NaCl, 0.4 mL/min; size from a regression of standard proteins

Substance “ATP hydrolysis-deficient DctD, DctD_(H216R), prepared as a dephosphorylated form (d-DctD_(H216R)) (natural protein)” has a stoichiometry N [1] of 12 and a stoichiometry N [2] of 2.
“dephosphorylated form of the glucose-specific enzyme IIA (d-IIA^Glc) (natural protein)” showed a stoichiometry N [3] of 1 molar ratio.
For “phosphorylation-deficient DctD (DctD_(D57Q)) of Vibrio vulnificus (natural protein)”, the stoichiometry N [4] was 2.

From paper PMC11077940
